# Results taken from patent publication CN114349861A (HUAOTSU BALL; JIANGSU INST OF TARGET BIOMEDICINE CO LTD, dated 2022).
# B1: 抗PD1-VHH1 (VHH)
# VHH: QVQLVESGGGSVQAGGSLRLSCAASGYASSSYSMGWFRQAPGKEREAVAGVNRDGSTRYADSVKGRFTISKDNAKNTLYLQMNSLKPEDTAMYYCAADRGWLPRRPDYWGQGTQVTVSS
# notes: Camel (dromedary) VHH selected from a T7 phage library; The soluble protein was expressed from pET32a in E. coli BL21(DE3) and purified on Ni-IDA; The specificity ELISA detected it with an anti-HA antibody; also called 抗PD1Nb1; antiPD1Nb
# Target: T1, 人PD1蛋白 (human, UniProt Q15116 25-170)
# T1 construct: extracellular domain; also called PD1(人); PD1(胞外段)蛋白
# Assay: non-competitive ELISA at three PD1 coating concentrations; Beatty formula, mean of three K values
# T1 sequence (Q15116 25-170): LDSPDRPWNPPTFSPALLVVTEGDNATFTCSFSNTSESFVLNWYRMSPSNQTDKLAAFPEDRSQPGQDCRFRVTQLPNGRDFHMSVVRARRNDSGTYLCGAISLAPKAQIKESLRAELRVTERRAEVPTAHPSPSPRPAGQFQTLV
binder,measurement,value
B1,Ka,8.2e+06 M⁻¹
